± gives the uncertainty stated by the source.
B1: Nucleosome-remodeling factor subunit BPTF, residues 2862 to 2918; numbered along this chain, Q12830 (parent)
chain: TKKDTKLYCICKTPYDESKFYIGCDRCQNWYHGRCVGILQSEAELIDEYVCPQCQST

Variants of: B1
Test: abundance fitness (aPCA) (normalised: wild type 0, dead -1); higher = more abundant; growth selection in yeast, the domain comes from the species named
Details: Homo sapiens

Row | Variant | abundance fitness
1 | TKKDTKLYCICKTPYDESKFYIGCDQCQNWYHGRCVGILQSEAELIDEYVCPQCQST | -0.203 ± 0.11
2 | TKKDTKLYCICKTPYDESKFYIGCDDCQNWYHGRCVGILQSEAELIDEYVCPQCQST | -0.029 ± 0.095
3 | TKKDTKLYCICKTPYDESKFYIGCDNCQNWYHGRCVGILQSEAELIDEYVCPQCQST | 0.075 ± 0.099
4 | TKKDTKLYCICKTPYDESKFYIGCDFCQNWYHGRCVGILQSEAELIDEYVCPQCQST | -0.279 ± 0.11
5 | TKKDTKLYCICKTPYDESKFYIGCDSCQNWYHGRCVGILQSEAELIDEYVCPQCQST | 0.008 ± 0.077
6 | TKKDTKLYCICKTPYDESKFYIGCDVCQNWYHGRCVGILQSEAELIDEYVCPQCQST | -0.18 ± 0.075
7 | TKKDTKLYCICKTPYDESKFYIGCDKCQNWYHGRCVGILQSEAELIDEYVCPQCQST | -0.17 ± 0.099
8 | TKKDTKLYCICKTPYDESKFYIGCDLCQNWYHGRCVGILQSEAELIDEYVCPQCQST | -0.068 ± 0.065
9 | TKKDTKLYCICKTPYDESKFYIGCDPCQNWYHGRCVGILQSEAELIDEYVCPQCQST | -0.207 ± 0.1
10 | TKKDTKLYCICKTPYDESKFYIGCDMCQNWYHGRCVGILQSEAELIDEYVCPQCQST | -0.193 ± 0.1
11 | TKKDTKLYCICKTPYDESKFYIGCDICQNWYHGRCVGILQSEAELIDEYVCPQCQST | 0.043 ± 0.087
12 | TKKDTKLYCICKTPYDESKFYIGCDTCQNWYHGRCVGILQSEAELIDEYVCPQCQST | 0.067 ± 0.094
13 | TKKDTKLYCICKTPYDESKFYIGYDRCQNWYHGRCVGILQSEAELIDEYVCPQCQST | -0.894 ± 0.1
14 | TKKDTKLYCICKTPYDESKFYIGHDRCQNWYHGRCVGILQSEAELIDEYVCPQCQST | -0.972 ± 0.18
15 | TKKDTKLYCICKTPYDESKFYIGPDRCQNWYHGRCVGILQSEAELIDEYVCPQCQST | -0.539 ± 0.095
16 | TKKDTKLYCICKTPYDESKFYIGFDRCQNWYHGRCVGILQSEAELIDEYVCPQCQST | -0.735 ± 0.14
17 | TKKDTKLYCICKTPYDESKFYIGGDRCQNWYHGRCVGILQSEAELIDEYVCPQCQST | -0.909 ± 0.13
18 | TKKDTKLYCICKTPYDESKFYIGTDRCQNWYHGRCVGILQSEAELIDEYVCPQCQST | -0.933 ± 0.12
19 | TKKDTKLYCICKTPYDESKFYIGIDRCQNWYHGRCVGILQSEAELIDEYVCPQCQST | -0.871 ± 0.16
20 | TKKDTKLYCICKTPYDESKFYIGVDRCQNWYHGRCVGILQSEAELIDEYVCPQCQST | -0.908 ± 0.11
21 | TKKDTKLYCICKTPYDESKFYIGDDRCQNWYHGRCVGILQSEAELIDEYVCPQCQST | -0.765 ± 0.12
22 | TKKDTKLYCICKTPYDESKFYIGSDRCQNWYHGRCVGILQSEAELIDEYVCPQCQST | -0.976 ± 0.1
23 | TKKDTKLYCICKTPYDESKFYIGNDRCQNWYHGRCVGILQSEAELIDEYVCPQCQST | -0.966 ± 0.16
24 | TKKDTKLYCICKTPYDESKFYIGLDRCQNWYHGRCVGILQSEAELIDEYVCPQCQST | -0.884 ± 0.087

Row | Variant | abundance fitness
25 | TKKDTKLYCICKTPYDESKFYIGWDRCQNWYHGRCVGILQSEAELIDEYVCPQCQST | -0.974 ± 0.15
26 | TKKDTKLYCICKTPYDESKFYIGADRCQNWYHGRCVGILQSEAELIDEYVCPQCQST | -1.02 ± 0.16
27 | TKKDTKLYCICKTPYDESKFYIGEDRCQNWYHGRCVGILQSEAELIDEYVCPQCQST | -0.641 ± 0.14
28 | TKKDTKLYCICKTPYDESKFYIGMDRCQNWYHGRCVGILQSEAELIDEYVCPQCQST | -1.05 ± 0.13
29 | TKKDTKLYCICKTPYDESKFYIGRDRCQNWYHGRCVGILQSEAELIDEYVCPQCQST | -0.584 ± 0.096
30 | TKKDTKLYCICKTPYDESKFYSGCDRCQNWYHGRCVGILQSEAELIDEYVCPQCQST | -0.786 ± 0.1
31 | TKKDTKLYCICKTPYDESKFYDGCDRCQNWYHGRCVGILQSEAELIDEYVCPQCQST | -0.819 ± 0.22
32 | TKKDTKLYCICKTPYDESKFYMGCDRCQNWYHGRCVGILQSEAELIDEYVCPQCQST | -0.237 ± 0.12
33 | TKKDTKLYCICKTPYDESKFYHGCDRCQNWYHGRCVGILQSEAELIDEYVCPQCQST | -0.678 ± 0.22
34 | TKKDTKLYCICKTPYDESKFYTGCDRCQNWYHGRCVGILQSEAELIDEYVCPQCQST | -0.398 ± 0.12
35 | TKKDTKLYCICKTPYDESKFYRGCDRCQNWYHGRCVGILQSEAELIDEYVCPQCQST | -0.475 ± 0.073
36 | TKKDTKLYCICKTPYDESKFYEGCDRCQNWYHGRCVGILQSEAELIDEYVCPQCQST | -0.953 ± 0.15
37 | TKKDTKLYCICKTPYDESKFYQGCDRCQNWYHGRCVGILQSEAELIDEYVCPQCQST | -0.641 ± 0.11
38 | TKKDTKLYCICKTPYDESKFYYGCDRCQNWYHGRCVGILQSEAELIDEYVCPQCQST | -0.617 ± 0.15
39 | TKKDTKLYCICKTPYDESKFYVGCDRCQNWYHGRCVGILQSEAELIDEYVCPQCQST | -0.038 ± 0.088
40 | TKKDTKLYCICKTPYDESKFYGGCDRCQNWYHGRCVGILQSEAELIDEYVCPQCQST | -0.649 ± 0.086
41 | TKKDTKLYCICKTPYDESKFYLGCDRCQNWYHGRCVGILQSEAELIDEYVCPQCQST | 0.015 ± 0.067
42 | TKKDTKLYCICKTPYDESKFYCGCDRCQNWYHGRCVGILQSEAELIDEYVCPQCQST | -0.806 ± 0.16
43 | TKKDTKLYCICKTPYDESKFYWGCDRCQNWYHGRCVGILQSEAELIDEYVCPQCQST | -0.533 ± 0.11
44 | TKKDTKLYCICKTPYDESKFYKGCDRCQNWYHGRCVGILQSEAELIDEYVCPQCQST | -0.551 ± 0.12
45 | TKKDTKLYCICKTPYDESKFYFGCDRCQNWYHGRCVGILQSEAELIDEYVCPQCQST | -0.609 ± 0.2
46 | TKKDTKLYCICKTPYDESKFYPGCDRCQNWYHGRCVGILQSEAELIDEYVCPQCQST | -0.87 ± 0.12
47 | TKKDTKLYCICKTPYDESKFYNGCDRCQNWYHGRCVGILQSEAELIDEYVCPQCQST | -0.803 ± 0.18

— the Human Domainome abundance scans (Beltran et al. 2025)
